Measurements published in US20030113325A1 (CHILDREN S MEDICAL CENTER, published 2003).

What was measured:
[1] = target: T1, Nogo-66 receptor (NgR), full-length, expressed on transfected cells (human, UniProt Q9BZR6 27-447); test: saturation analysis of AP-OMgp binding to N2A cells transfected with NgR cDNA, bound AP activity
T1 construct: whole, on cells; The species of the NgR on the CHO cells is not restated; also called Nogo receptor
T1 sequence (looked up): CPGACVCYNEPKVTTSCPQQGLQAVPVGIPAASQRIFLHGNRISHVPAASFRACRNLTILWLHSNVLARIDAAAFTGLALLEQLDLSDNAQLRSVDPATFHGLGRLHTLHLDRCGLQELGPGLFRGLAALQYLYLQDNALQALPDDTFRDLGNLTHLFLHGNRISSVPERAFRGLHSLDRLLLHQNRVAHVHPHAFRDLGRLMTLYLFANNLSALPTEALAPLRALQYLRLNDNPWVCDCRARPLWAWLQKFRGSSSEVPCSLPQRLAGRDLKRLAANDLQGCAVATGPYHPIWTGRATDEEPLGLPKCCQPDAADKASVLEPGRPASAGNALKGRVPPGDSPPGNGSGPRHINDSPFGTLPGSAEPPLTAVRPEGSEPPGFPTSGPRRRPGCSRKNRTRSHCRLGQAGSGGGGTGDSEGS
From the text: (§1) We next took advantage of AP-OMgp binding to identify cell surface OMgp-binding proteins by expression cloning (He & Tessier-Lavigne, 1997; Flanagan and Cheng, 2000; Fournier et al., 2001). Pools of a complementary DNA expression library from adult human brain, representing approximately 250,000 independent clones, were transfected into COS-7 cells and screened for the presence of cells that bound AP-OMgp. […] After screening several rounds of subpools, we isolated two cDNAs that encoded the OMgp-binding proteins. […] We next performed coimmunoprecipitation experiments by incubating GST or a GST-NgR fusion protein containing the entire extracellular domain of NgR (GST-NgR) with AP or AP-OMgp.
Cell surface binding and expression cloning were performed as described previously (He and Tessier-Lavigne, 1997). To detect AP-OMgp binding, cultures were washed with binding buffer (Hanks balanced salt solution containing 20 mM Hepes, pH 7.5, and 1 mg/ml bovine serum albumin (BSA)). The plates were then incubated with AP-OMgp-containing binding buffer for 75 min at room temperature. After extensive washing and heat inactivation, bound AP fusion proteins were detected by AP staining using NBT and BCIP as substrate. For saturation analysis, we disrupted cells and detected bound AP fusion proteins using […] as substrate.

AP = target: T2, AP (UniProt P05187 23-511, limits assumed); test: coimmunoprecipitation of GST or GST-NgR with AP or AP-OMgp
T2 construct: Control in the coimmunoprecipitation; also called alkaline phosphatase; AP alone
T2 sequence (P05187 23-511 limits assumed): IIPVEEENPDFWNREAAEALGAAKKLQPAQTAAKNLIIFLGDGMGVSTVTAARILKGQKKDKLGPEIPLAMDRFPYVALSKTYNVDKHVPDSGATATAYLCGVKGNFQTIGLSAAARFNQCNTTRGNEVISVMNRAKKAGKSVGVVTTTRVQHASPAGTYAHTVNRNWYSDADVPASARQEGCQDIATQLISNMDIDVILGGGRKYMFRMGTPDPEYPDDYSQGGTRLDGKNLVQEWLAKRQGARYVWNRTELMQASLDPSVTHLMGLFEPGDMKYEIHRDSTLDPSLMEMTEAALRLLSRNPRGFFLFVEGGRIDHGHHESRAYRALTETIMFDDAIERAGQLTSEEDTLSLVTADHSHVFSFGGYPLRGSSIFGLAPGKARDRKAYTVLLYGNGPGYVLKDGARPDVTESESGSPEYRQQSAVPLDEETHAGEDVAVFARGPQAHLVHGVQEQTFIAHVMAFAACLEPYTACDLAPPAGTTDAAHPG
From the text: as §1

B1: AP-OMgp fusion protein (ligand, mouse, UniProt Q63912 25-417, looked up)
chain: ICPLQCTCTERHRHVDCSGRNLTTLPPGLQENIIHLNLSYNHFTDLHNQLTPYTNLRTLDISNNRLESLPAQLPRSLWNMSAANNNIKLLDKSDTAYQWNLKYLDVSKNMLEKVVLIKNTLRSLEVLNLSSNKLWTVPTNMPSKLHIVDLSNNSLTQILPGTLINLTNLTHLYLHNNKFTFIPEQSFDQLLQLQEITLHNNRWSCDHKQNITYLLKWVMETKAHVIGTPCSKQVSSLKEQSMYPTPPGFTSSLFTMSEMQTVDTINSLSMVTQPKVTKTPKQYRGKETTFGVTLSKDTTFSSTDRAVVAYPEDTPTEMTNSHEAAAATLTIHLQDGMSSNASLTSATKSPPSPVTLSIARGMPNNFSEMPRQSTTLNLRREETTANGNTRPPS
notes: Secreted from COS-7 cells and purified on nickel-agarose; about 180 kDa; The order of the parts follows the name AP-OMgp; not shown: alkaline phosphatase (AP) reporter of expression vector AP-5 (Flanagan and Cheng, 2000)
- Kd [1]: 5 nM

B2: GST-NgR fusion protein containing the entire extracellular domain of NgR (receptor, UniProt Q9BZR6 27-447, looked up)
chain: T1 sequence (looked up)
notes: extracellular domain; not shown: glutathione S-transferase (GST) fusion partner
- binding result (AP): no binding
